Laboratory results published in patent publication US11898181B2, “Genetically modified isopropylmalate isomerase enzyme complexes and processes to prepare elongated 2-ketoacids and C5-C10 compounds therewith” (Dow Global Technologies LLC, priority 2017, dated 2022).

How the values were obtained:
Type in all cases: biochemical, E. coli
[1] = substrate: CCCCC(O)(CC(=O)O)C(=O)O; assay: Kinetic analysis of LeuCD (LeuB-coupled HTP assay), Variant 6; details: other: 2-BM 0-5 mM, pH 8, room temperature, 30 min
[2] = substrate: CCCCCCC(O)(CC(=O)O)C(=O)O; assay: as above; details: other: 2-HM 0-1.6 mM, pH 8, room temperature, 30 min
[3] = substrate: CCCCC(O)(CC(=O)O)C(=O)O; assay: Kinetic analysis of LeuCD (LeuB-coupled HTP assay), Variant 61; details: other: 2-BM 0-5 mM, pH 8, room temperature, 30 min
[4] = substrate: CCCCCCC(O)(CC(=O)O)C(=O)O; assay: as above; details: other: 2-HM 0-1.6 mM, pH 8, room temperature, 30 min
[5] = substrate: CCCCC(O)(CC(=O)O)C(=O)O; assay: Kinetic analysis of LeuCD (LeuB-coupled HTP assay), Variant 5; details: other: 2-BM 0-5 mM, pH 8, room temperature, 30 min
[6] = substrate: CCCCCCC(O)(CC(=O)O)C(=O)O; assay: as above; details: other: 2-HM 0-1.6 mM, pH 8, room temperature, 30 min
[7] = substrate: CCCCC(O)(CC(=O)O)C(=O)O; assay: Kinetic analysis of LeuCD (LeuB-coupled HTP assay), Variant 1; details: other: 2-BM 0-5 mM, pH 8, room temperature, 30 min
[8] = substrate: CCCCCCC(O)(CC(=O)O)C(=O)O; assay: as above; details: other: 2-HM 0-1.6 mM, pH 8, room temperature, 30 min
[9] = substrate: CCCCC(O)(CC(=O)O)C(=O)O; assay: Kinetic analysis of LeuCD (LeuB-coupled HTP assay), Variant 9; details: other: 2-BM 0-5 mM, pH 8, room temperature, 30 min
[10] = substrate: CCCCCCC(O)(CC(=O)O)C(=O)O; assay: as above; details: other: 2-HM 0-1.6 mM, pH 8, room temperature, 30 min
[11] = substrate: CCCCC(O)(CC(=O)O)C(=O)O; assay: Kinetic analysis of LeuCD (LeuB-coupled HTP assay), Variant 59; details: other: 2-BM 0-5 mM, pH 8, room temperature, 30 min
[12] = substrate: CCCCCCC(O)(CC(=O)O)C(=O)O; assay: as above; details: other: 2-HM 0-1.6 mM, pH 8, room temperature, 30 min

B1: E. coli isopropylmalate isomerase LeuCD complex, Variant 6 (wt LeuC + L31G-LeuD; parents SEQ ID NO: 1 and SEQ ID NO: 2) (Escherichia coli K-12; L31G) (protein)
chain 1: MGSSHHHHHHSSGMAKTLYEKLFDAHVVYEAENETPLLYIDRHLVHEVTSPQAFDGLRAHGRPVRQPGKTFATMDHNVSTQTKDINACGEMARIQMQELIKNCKEFGVELYDLNHPYQGIVHVMGPEQGVTLPGMTIVCGDSHTATHGAFGALAFGIGTSEVEHVLATQTLKQGRAKTMKIEVQGKAAPGITAKDIVLAIIGKTGSAGGTGHVVEFCGEAIRDLSMEGRMTLCNMAIEMGAKAGLVAPDETTFNYVKGRLHAPKGKDFDDAVAYWKTLQTDEGATFDTVVTLQAEEISPQVTWGTNPGQVISVNDNIPDPASFADPVERASAEKALAYMGLKPGIPLTEVAIDKVFIGSCTNSRIEDLRAAAEIAKGRKVAPGVQALVVPGSGPVKAQAEAEGLDKIFIEAGFEWRLPGCSMCLAMNNDRLNPGERCASTSNRNFEGRQGRGGRTHLVSPAMAAAAAVTGHFADIRNIK
chain 2: MAEKFIKHTGLVVPLDAANVDTDAIIPKQFGQKVTRTGFGAHLFNDWRFLDEKGQQPNPDFVLNFPQYQGASILLARENFGCGSSREHAPWALTDYGFKVVIAPSFADIFYGNSFNNQLLPVKLSDAEVDELFALVKANPGIHFDVDLEAQEVKAGEKTYRFTIDAFRRHCMMNGLDSIGLTLQHDDAIAAYEAKQPAFMN
notes: expression of a His-tagged LeuC having 13 additional amino acids on the N-terminus; made in house; host or cells: E. coli BL21(DE3), whole cell lysate
Km [1]: 8440 ± 2400 µM
kcat [1]: 0.132 ± 0.0333 s⁻¹
kcat/Km [1]: 17.2 ± 6.67 M⁻¹ s⁻¹
Km [2]: 650 ± 40 µM
kcat [2]: 0.3436 ± 0.00944 s⁻¹
kcat/Km [2]: 532.5 ± 35.8 M⁻¹ s⁻¹

B2: E. coli isopropylmalate isomerase LeuCD complex, Variant 61 (wt LeuC + L31G/H88A-LeuD; parents SEQ ID NO: 1 and SEQ ID NO: 2) (Escherichia coli K-12; H88A/L31G) (protein)
chain 1: MGSSHHHHHHSSGMAKTLYEKLFDAHVVYEAENETPLLYIDRHLVHEVTSPQAFDGLRAHGRPVRQPGKTFATMDHNVSTQTKDINACGEMARIQMQELIKNCKEFGVELYDLNHPYQGIVHVMGPEQGVTLPGMTIVCGDSHTATHGAFGALAFGIGTSEVEHVLATQTLKQGRAKTMKIEVQGKAAPGITAKDIVLAIIGKTGSAGGTGHVVEFCGEAIRDLSMEGRMTLCNMAIEMGAKAGLVAPDETTFNYVKGRLHAPKGKDFDDAVAYWKTLQTDEGATFDTVVTLQAEEISPQVTWGTNPGQVISVNDNIPDPASFADPVERASAEKALAYMGLKPGIPLTEVAIDKVFIGSCTNSRIEDLRAAAEIAKGRKVAPGVQALVVPGSGPVKAQAEAEGLDKIFIEAGFEWRLPGCSMCLAMNNDRLNPGERCASTSNRNFEGRQGRGGRTHLVSPAMAAAAAVTGHFADIRNIK
chain 2: MAEKFIKHTGLVVPLDAANVDTDAIIPKQFGQKVTRTGFGAHLFNDWRFLDEKGQQPNPDFVLNFPQYQGASILLARENFGCGSSREAAPWALTDYGFKVVIAPSFADIFYGNSFNNQLLPVKLSDAEVDELFALVKANPGIHFDVDLEAQEVKAGEKTYRFTIDAFRRHCMMNGLDSIGLTLQHDDAIAAYEAKQPAFMN
notes: as for B1
kcat/Km [3]: 0.278 ± 0 M⁻¹ s⁻¹
kcat/Km [4]: 6.11 ± 0.56 M⁻¹ s⁻¹

B3: E. coli isopropylmalate isomerase LeuCD complex, Variant 5 (wt LeuC + L31A-LeuD; parents SEQ ID NO: 1 and SEQ ID NO: 2) (Escherichia coli K-12; L31A) (protein)
chain 1: MGSSHHHHHHSSGMAKTLYEKLFDAHVVYEAENETPLLYIDRHLVHEVTSPQAFDGLRAHGRPVRQPGKTFATMDHNVSTQTKDINACGEMARIQMQELIKNCKEFGVELYDLNHPYQGIVHVMGPEQGVTLPGMTIVCGDSHTATHGAFGALAFGIGTSEVEHVLATQTLKQGRAKTMKIEVQGKAAPGITAKDIVLAIIGKTGSAGGTGHVVEFCGEAIRDLSMEGRMTLCNMAIEMGAKAGLVAPDETTFNYVKGRLHAPKGKDFDDAVAYWKTLQTDEGATFDTVVTLQAEEISPQVTWGTNPGQVISVNDNIPDPASFADPVERASAEKALAYMGLKPGIPLTEVAIDKVFIGSCTNSRIEDLRAAAEIAKGRKVAPGVQALVVPGSGPVKAQAEAEGLDKIFIEAGFEWRLPGCSMCLAMNNDRLNPGERCASTSNRNFEGRQGRGGRTHLVSPAMAAAAAVTGHFADIRNIK
chain 2: MAEKFIKHTGLVVPLDAANVDTDAIIPKQFAQKVTRTGFGAHLFNDWRFLDEKGQQPNPDFVLNFPQYQGASILLARENFGCGSSREHAPWALTDYGFKVVIAPSFADIFYGNSFNNQLLPVKLSDAEVDELFALVKANPGIHFDVDLEAQEVKAGEKTYRFTIDAFRRHCMMNGLDSIGLTLQHDDAIAAYEAKQPAFMN
notes: as for B1
Km [5]: 1310 ± 140 µM
kcat [5]: 0.3889 ± 0.0214 s⁻¹
kcat/Km [5]: 299.2 ± 35.8 M⁻¹ s⁻¹
Km [6]: 1400 ± 600 µM
kcat [6]: 0.00972 ± 0.0014 s⁻¹
kcat/Km [6]: 8.06 ± 3.61 M⁻¹ s⁻¹

B4: E. coli isopropylmalate isomerase LeuCD complex, Variant 1 (V35A-LeuC + wt LeuD; parents SEQ ID NO: 1 and SEQ ID NO: 2) (Escherichia coli K-12; V35A) (protein)
chain 1: MGSSHHHHHHSSGMAKTLYEKLFDAHVVYEAENETPLLYIDRHLVHEATSPQAFDGLRAHGRPVRQPGKTFATMDHNVSTQTKDINACGEMARIQMQELIKNCKEFGVELYDLNHPYQGIVHVMGPEQGVTLPGMTIVCGDSHTATHGAFGALAFGIGTSEVEHVLATQTLKQGRAKTMKIEVQGKAAPGITAKDIVLAIIGKTGSAGGTGHVVEFCGEAIRDLSMEGRMTLCNMAIEMGAKAGLVAPDETTFNYVKGRLHAPKGKDFDDAVAYWKTLQTDEGATFDTVVTLQAEEISPQVTWGTNPGQVISVNDNIPDPASFADPVERASAEKALAYMGLKPGIPLTEVAIDKVFIGSCTNSRIEDLRAAAEIAKGRKVAPGVQALVVPGSGPVKAQAEAEGLDKIFIEAGFEWRLPGCSMCLAMNNDRLNPGERCASTSNRNFEGRQGRGGRTHLVSPAMAAAAAVTGHFADIRNIK
chain 2: MAEKFIKHTGLVVPLDAANVDTDAIIPKQFLQKVTRTGFGAHLFNDWRFLDEKGQQPNPDFVLNFPQYQGASILLARENFGCGSSREHAPWALTDYGFKVVIAPSFADIFYGNSFNNQLLPVKLSDAEVDELFALVKANPGIHFDVDLEAQEVKAGEKTYRFTIDAFRRHCMMNGLDSIGLTLQHDDAIAAYEAKQPAFMN
notes: as for B1
Km [7]: 3900 ± 700 µM
kcat [7]: 0.151 ± 0.0231 s⁻¹
kcat/Km [7]: 40.3 ± 9.44 M⁻¹ s⁻¹
Km [8]: 3350 ± 750 µM
kcat [8]: 0.0872 ± 0.0153 s⁻¹
kcat/Km [8]: 27.2 ± 7.78 M⁻¹ s⁻¹

B5: E. coli isopropylmalate isomerase LeuCD complex, Variant 9 (V35A-LeuC + L31G-LeuD; parents SEQ ID NO: 1 and SEQ ID NO: 2) (Escherichia coli K-12; L31G/V35A) (protein)
chain 1: MGSSHHHHHHSSGMAKTLYEKLFDAHVVYEAENETPLLYIDRHLVHEATSPQAFDGLRAHGRPVRQPGKTFATMDHNVSTQTKDINACGEMARIQMQELIKNCKEFGVELYDLNHPYQGIVHVMGPEQGVTLPGMTIVCGDSHTATHGAFGALAFGIGTSEVEHVLATQTLKQGRAKTMKIEVQGKAAPGITAKDIVLAIIGKTGSAGGTGHVVEFCGEAIRDLSMEGRMTLCNMAIEMGAKAGLVAPDETTFNYVKGRLHAPKGKDFDDAVAYWKTLQTDEGATFDTVVTLQAEEISPQVTWGTNPGQVISVNDNIPDPASFADPVERASAEKALAYMGLKPGIPLTEVAIDKVFIGSCTNSRIEDLRAAAEIAKGRKVAPGVQALVVPGSGPVKAQAEAEGLDKIFIEAGFEWRLPGCSMCLAMNNDRLNPGERCASTSNRNFEGRQGRGGRTHLVSPAMAAAAAVTGHFADIRNIK
chain 2: MAEKFIKHTGLVVPLDAANVDTDAIIPKQFGQKVTRTGFGAHLFNDWRFLDEKGQQPNPDFVLNFPQYQGASILLARENFGCGSSREHAPWALTDYGFKVVIAPSFADIFYGNSFNNQLLPVKLSDAEVDELFALVKANPGIHFDVDLEAQEVKAGEKTYRFTIDAFRRHCMMNGLDSIGLTLQHDDAIAAYEAKQPAFMN
notes: as for B1
kcat/Km [9]: 0.56 ± 0 M⁻¹ s⁻¹
Km [10]: 600 ± 34 µM
kcat [10]: 0.0461 ± 0.0014 s⁻¹
kcat/Km [10]: 78.6 ± 5 M⁻¹ s⁻¹

B6: E. coli isopropylmalate isomerase LeuCD complex, Variant 59 (wt LeuC + L31V/H88A-LeuD; parents SEQ ID NO: 1 and SEQ ID NO: 2) (Escherichia coli K-12; H88A/L31V) (protein)
chain 1: MGSSHHHHHHSSGMAKTLYEKLFDAHVVYEAENETPLLYIDRHLVHEVTSPQAFDGLRAHGRPVRQPGKTFATMDHNVSTQTKDINACGEMARIQMQELIKNCKEFGVELYDLNHPYQGIVHVMGPEQGVTLPGMTIVCGDSHTATHGAFGALAFGIGTSEVEHVLATQTLKQGRAKTMKIEVQGKAAPGITAKDIVLAIIGKTGSAGGTGHVVEFCGEAIRDLSMEGRMTLCNMAIEMGAKAGLVAPDETTFNYVKGRLHAPKGKDFDDAVAYWKTLQTDEGATFDTVVTLQAEEISPQVTWGTNPGQVISVNDNIPDPASFADPVERASAEKALAYMGLKPGIPLTEVAIDKVFIGSCTNSRIEDLRAAAEIAKGRKVAPGVQALVVPGSGPVKAQAEAEGLDKIFIEAGFEWRLPGCSMCLAMNNDRLNPGERCASTSNRNFEGRQGRGGRTHLVSPAMAAAAAVTGHFADIRNIK
chain 2: MAEKFIKHTGLVVPLDAANVDTDAIIPKQFVQKVTRTGFGAHLFNDWRFLDEKGQQPNPDFVLNFPQYQGASILLARENFGCGSSREAAPWALTDYGFKVVIAPSFADIFYGNSFNNQLLPVKLSDAEVDELFALVKANPGIHFDVDLEAQEVKAGEKTYRFTIDAFRRHCMMNGLDSIGLTLQHDDAIAAYEAKQPAFMN
notes: as for B1
Km [11]: 2700 ± 400 µM
kcat [11]: 0.0606 ± 0.00611 s⁻¹
kcat/Km [11]: 23.1 ± 3.89 M⁻¹ s⁻¹
Km [12]: 3800 ± 900 µM
kcat [12]: 0.0506 ± 0.0103 s⁻¹
kcat/Km [12]: 13.9 ± 4.44 M⁻¹ s⁻¹
